# Measured values taken from patent publication US8785135B2, “Mutant G-protein coupled receptors and methods for selecting them” (Heptares Therapeutics Limited, priority 2007, dated 2014).
# Where a chain is given by its changes, count along the chain named. Numbers in names are those of the source.
# B1: A203L: A2aR point mutant (protein, UniProt P29274 1-412, looked up, variant A203L)
# Adenosine receptor A2a: MPIMGSSVYITVELAIAVLAILGNVLVCWAVWLNSNLQNVTNYFVVSLAAADIAVGVLAIPFAITISTGFCAACHGCLFIACFVLVLTQSSIFSLLAIAIDRYIAIRIPLRYNGLVTGTRAKGIIAICWVLSFAIGLTPMLGWNNCGQPKEGKNHSQGCGEGQVACLFEDVVPMNYMVYFNFFACVLVPLLLMLGVYLRIFLLARRQLKQMESQPLPGERARSTLQKEVHAAKSLAIIVGLFALCWLPLHIINCFTFFCPDCSHAPLWLMYLAIVLSHTNSVVNPFIYAYRIREFRQTFRKIIRSHVLRQQEPFKAAGTSARVLAAHGSDGEQVSLRLNGHPPGVWANGSAPHPERRPNGYALGLVSGGSAQESQGNTGLPDVELLSHELKGVCPEPPGLDDPLAQDGAGVS
# B2: A73L: NTR point mutant (protein, UniProt P20789 1-424, looked up, variant A73L)
# Neurotensin receptor type 1: MHLNSSVPQGTPGEPDAQPFSGPQSEMEATFLALSLSNGSGNTSESDTAGPNSDLDVNTDIYSKVLVTAIYLLLFVVGTVGNSVTAFTLARKKSLQSLQSTVHYHLGSLALSDLLILLLAMPVELYNFIWVHHPWAFGDAGCRGYYFLRDACTYATALNVASLSVERYLAICHPFKAKTLMSRSRTKKFISAIWLASALLAIPMLFTMGLQNRSGDGTHPGGLVCTPIVDTATVKVVIQVNTFMSFLFPMLVISILNTVIANKLTVMVHQAAEQGRVCTVGTHNGLEHSTFNMTIEPGRVQALRHGVLVLRAVVIAFVVCWLPYHVRRLMFCYISDEQWTTFLFDFYHYFYMLTNALFYVSSAINPILYNLVSANFRQVFLSTLACLCPGWRHRRKKRPTFSRKPNSMSSNHAFSTSATRETLY
# B3: V165A: NTR point mutant (protein, UniProt P20789 1-424, looked up, variant V165A)
# Neurotensin receptor type 1: B2 Neurotensin receptor type 1 with L73A, V165A
# B4: E166A: NTR point mutant (protein, UniProt P20789 1-424, looked up, variant E166A)
# Neurotensin receptor type 1: B2 Neurotensin receptor type 1 with L73A, E166A
# B5: G215A: NTR point mutant (protein, UniProt P20789 1-424, looked up, variant G215A)
# Neurotensin receptor type 1: B2 Neurotensin receptor type 1 with L73A, G215A
# B6: V229A: NTR point mutant (protein, UniProt P20789 1-424, looked up, variant V229A)
# Neurotensin receptor type 1: B2 Neurotensin receptor type 1 with L73A, V229A
# B7: A356L: NTR point mutant (protein, UniProt P20789 1-424, looked up, variant A356L)
# Neurotensin receptor type 1: B2 Neurotensin receptor type 1 with L73A, A356L
# B8: M250A: NTR point mutant (protein, UniProt P20789 1-424, looked up, variant M250A)
# Neurotensin receptor type 1: B2 Neurotensin receptor type 1 with L73A, M250A
# B9: 1253A: NTR point mutant, Ile 253 to Ala (protein, UniProt P20789 1-424, looked up, variant I253A)
# Neurotensin receptor type 1: B2 Neurotensin receptor type 1 with L73A, I253A
# B10: A177L: NTR point mutant (protein, UniProt P20789 1-424, looked up, variant A177L)
# Neurotensin receptor type 1: B2 Neurotensin receptor type 1 with L73A, A177L
# B11: R183A: NTR point mutant (protein, UniProt P20789 1-424, looked up, variant R183A)
# Neurotensin receptor type 1: B2 Neurotensin receptor type 1 with L73A, R183A
# B12: I260A: NTR point mutant (protein, UniProt P20789 1-424, looked up, variant I260A)
# Neurotensin receptor type 1: B2 Neurotensin receptor type 1 with L73A, I260A
# B13: T294A: NTR point mutant (protein, UniProt P20789 1-424, looked up, variant T294A)
# Neurotensin receptor type 1: B2 Neurotensin receptor type 1 with L73A, T294A
# B14: G306A: NTR point mutant (protein, UniProt P20789 1-424, looked up, variant G306A)
# Neurotensin receptor type 1: B2 Neurotensin receptor type 1 with L73A, G306A
# B15: L308A: NTR point mutant (protein, UniProt P20789 1-424, looked up, variant L308A)
# Neurotensin receptor type 1: B2 Neurotensin receptor type 1 with L73A, L308A
# B16: V309A: NTR point mutant (protein, UniProt P20789 1-424, looked up, variant V309A)
# Neurotensin receptor type 1: B2 Neurotensin receptor type 1 with L73A, V309A
# B17: H103A: NTR point mutant (protein, UniProt P20789 1-424, looked up, variant H103A)
# Neurotensin receptor type 1: B2 Neurotensin receptor type 1 with L73A, H103A
# B18: L310A: NTR point mutant (protein, UniProt P20789 1-424, looked up, variant L310A)
# Neurotensin receptor type 1: B2 Neurotensin receptor type 1 with L73A, L310A
# B19: V313A: NTR point mutant (protein, UniProt P20789 1-424, looked up, variant V313A)
# Neurotensin receptor type 1: B2 Neurotensin receptor type 1 with L73A, V313A
# B20: F342A: NTR point mutant (protein, UniProt P20789 1-424, looked up, variant F342A)
# Neurotensin receptor type 1: B2 Neurotensin receptor type 1 with L73A, F342A
# B21: V360A: NTR point mutant (protein, UniProt P20789 1-424, looked up, variant V360A)
# Neurotensin receptor type 1: B2 Neurotensin receptor type 1 with L73A, V360A
# B22: N370A: NTR point mutant (protein, UniProt P20789 1-424, looked up, variant N370A)
# Neurotensin receptor type 1: B2 Neurotensin receptor type 1 with L73A, N370A
# B23: S373A: NTR point mutant (protein, UniProt P20789 1-424, looked up, variant S373A)
# Neurotensin receptor type 1: B2 Neurotensin receptor type 1 with L73A, S373A
# B24: F380A: NTR point mutant (protein, UniProt P20789 1-424, looked up, variant F380A)
# Neurotensin receptor type 1: B2 Neurotensin receptor type 1 with L73A, F380A
# B25: P389A: NTR point mutant (protein, UniProt P20789 1-424, looked up, variant P389A)
# Neurotensin receptor type 1: B2 Neurotensin receptor type 1 with L73A, P389A
# B26: G390A: NTR point mutant (protein, UniProt P20789 1-424, looked up, variant G390A)
# Neurotensin receptor type 1: B2 Neurotensin receptor type 1 with L73A, G390A
# B27: R395A: NTR point mutant (protein, UniProt P20789 1-424, looked up, variant R395A)
# Neurotensin receptor type 1: B2 Neurotensin receptor type 1 with L73A, R395A
# B28: D345A: NTR point mutant (protein, UniProt P20789 1-424, looked up, variant D345A)
# Neurotensin receptor type 1: B2 Neurotensin receptor type 1 with L73A, D345A
# B29: A86L: NTR point mutant (protein, UniProt P20789 1-424, looked up, variant A86L)
# Neurotensin receptor type 1: B2 Neurotensin receptor type 1 with L73A, A86L
# B30: A385L: NTR point mutant (protein, UniProt P20789 1-424, looked up, variant A385L)
# Neurotensin receptor type 1: B2 Neurotensin receptor type 1 with L73A, A385L
# B31: Y349A: NTR point mutant (protein, UniProt P20789 1-424, looked up, variant Y349A)
# Neurotensin receptor type 1: B2 Neurotensin receptor type 1 with L73A, Y349A
# Assays:
# [1] = Thermostability of A2aR and mutants (ligand binding after or during heating); type: physicochemical; conditions: Ligand(−) format, binding after the heating step
# From the text: (§1) FIG. 12 Flow chart showing the two different assay formats of ligand (+) and ligand (−) used to determine receptor thermostability.
# • 1. 315 site-directed mutants made between residues 2-316 of A2aR. • 2. All of these mutants have been assayed for thermostability using an assay measuring agonist and antagonist binding after the heating step (Ligand(−) format as described in FIG. 12). • a. […] Mutations have been combined to generate mutants in a putative antagonist conformation. Wildtype A2aR has a Tm of 31° C. with ZM241385 bound. • a. Rant17 A54L+K122A+L235A Tm 48° C. (ZM241385 bound) • b. Rant19 A54L, T88A, V239A+A204L Tm 47° C. (ZM241385 bound) • c. Rant21 A54L, T88A, V239A+K122A Tm 49° C. (ZM241385 bound) • 4. Mutations from the agonist screen have been combined, but have led to only a very low level of improvement in Tm of +2° C.
# [2] = Thermostability of NTR and mutants (3H-neurotensin binding); type: physicochemical; conditions: for thermostability, heated in the presence of 3H-neurotensin: Ligand(+) format; for thermostability, 3H-neurotensin (agonist) binding after the heating step: heated in the absence of the agonist
# Protocol: as §1
# • 1. 340 site-directed mutants have been made between residues 61-400 of NTR. • 2. Initially, all of these mutants were assayed for thermostability using an assay measuring ^3H-neurotensin (agonist) binding after the heating step. […] Mutants tested for thermostability by heating in the absence of the agonist were re-tested using a slightly different assay where the mutants were heated in the presence of ^3H-neurotensin (Ligand(+) format in FIG. 12). […] All of these also have increased thermostability. • 5. Preferred combinations are • a. Nag7m F358A+A86L+I260A+F342A Tm 51° C. (neurotensin bound) • b. Nag7n F358A+H103A+I260A+F342A Tm 51° C. (neurotensin bound) • Wildtype NTR has a Tm of 35° C. with neurotensin bound.
molecule,measurement,setting,value
B1,thermostability assayed with 3H-ZM241385 (antagonist),[1],improved thermostability
same,thermostability measured with 3H-NECA (agonist),[1],improved thermostability
B2,"thermostability, heated in the presence of 3H-neurotensin",[2],improved thermostability
B3,"thermostability, heated in the presence of 3H-neurotensin",[2],improved thermostability
B4,"thermostability, heated in the presence of 3H-neurotensin",[2],improved thermostability
B5,"thermostability, heated in the presence of 3H-neurotensin",[2],improved thermostability
B6,"thermostability, heated in the presence of 3H-neurotensin",[2],improved thermostability
B7,"thermostability, 3H-neurotensin (agonist) binding after the heating step",[2],small but significant increase in thermostability
B8,"thermostability, heated in the presence of 3H-neurotensin",[2],improved thermostability
B9,"thermostability, heated in the presence of 3H-neurotensin",[2],improved thermostability
B10,"thermostability, heated in the presence of 3H-neurotensin",[2],improved thermostability
B11,"thermostability, heated in the presence of 3H-neurotensin",[2],improved thermostability
B12,"thermostability, heated in the presence of 3H-neurotensin",[2],improved thermostability
B13,"thermostability, heated in the presence of 3H-neurotensin",[2],improved thermostability
B14,"thermostability, heated in the presence of 3H-neurotensin",[2],improved thermostability
B15,"thermostability, heated in the presence of 3H-neurotensin",[2],improved thermostability
B16,"thermostability, heated in the presence of 3H-neurotensin",[2],improved thermostability
B17,"thermostability, heated in the presence of 3H-neurotensin",[2],improved thermostability
same,"thermostability, 3H-neurotensin (agonist) binding after the heating step",[2],small but significant increase in thermostability
B18,"thermostability, heated in the presence of 3H-neurotensin",[2],improved thermostability
B19,"thermostability, heated in the presence of 3H-neurotensin",[2],improved thermostability
B20,"thermostability, heated in the presence of 3H-neurotensin",[2],improved thermostability
B21,"thermostability, heated in the presence of 3H-neurotensin",[2],improved thermostability
B22,"thermostability, heated in the presence of 3H-neurotensin",[2],improved thermostability
B23,"thermostability, heated in the presence of 3H-neurotensin",[2],improved thermostability
B24,"thermostability, heated in the presence of 3H-neurotensin",[2],improved thermostability
B25,"thermostability, heated in the presence of 3H-neurotensin",[2],improved thermostability
B26,"thermostability, heated in the presence of 3H-neurotensin",[2],improved thermostability
B27,"thermostability, heated in the presence of 3H-neurotensin",[2],improved thermostability
B28,"thermostability, 3H-neurotensin (agonist) binding after the heating step",[2],small but significant increase in thermostability
B29,"thermostability, heated in the presence of 3H-neurotensin",[2],improved thermostability
same,"thermostability, 3H-neurotensin (agonist) binding after the heating step",[2],small but significant increase in thermostability
B30,"thermostability, heated in the presence of 3H-neurotensin",[2],improved thermostability
same,"thermostability, 3H-neurotensin (agonist) binding after the heating step",[2],small but significant increase in thermostability
B31,"thermostability, 3H-neurotensin (agonist) binding after the heating step",[2],small but significant increase in thermostability
